Results taken from the DeepSol protein solubility set.

assay: soluble on expression in E. coli; label from the status in PepcDB or PDB records

| Sequence | soluble on expression in E. coli |
| --- | --- |
| LKDSYVEYTLLYDTIASRISIDEVEAKDGKLRLMKNVWWEYDKLPHMLIAGGTGGGKTYFILTLIEALLHTDSKLYILDPKNADLADLGSVMANVYYRKEDLLSCIETFYEEMMKRSEEMKQMKNYKTGKNYAYLGLPAHFLIFDEYVAFMEMLGTKENTAVMNKLKQIVMLGRQAGFFLILACQRPDA | not soluble |
| MSLQSLWIYPEDTEVLGAACKSLLKALKPRYQKIALFSPISGGCEGFGECESLSSLEVHSAIDKQKALELVSTAQEELLFETILKRYDELQSTHDFVINLGYAPKFFLNALLDLNTILAKHLNAPVVAVAQTSLDHLKAMHSHILKKEAPFAIGLFVGETLEKPHFLSASLCKQQCELEASAIENLLQTKSEIITPLAFQRSLEKKAKKQIKKVVLPESEDERILKAAHRLNLMGAVGLILLGDKEAINSQAKNLNLNLENVEIINPNTSHYREEFAKSLYELRKSKGLSEQEAERLALDKTYFATMLVHLGYAHAMVSGVNHTTAETIRPALQIIKTKPGVSLVSSVFLMCLDTQVFVFGDCAIIPNPSPKELAEIATTSAQTAKQFNIAPKVALLSYATGNSAQGEMIDKINEALTIVQKLDPQLEIDGPLQFDASIDKGVAKKKMPNSQVAGQASVFIFPDLNAGNIAYKAVQRSAKAVAIGPILQGLNKPINDLSRGALVEDIVNTVLISAIQAQDYEGHHHHHH | not soluble |
| SKKVIVIAGTTGVGKSQLSIQLAQKFNGEVINSDSMQVYKDIPIITNKHPLQEREGIPHHVMNHVDWSEEYYSHRFETECMNAIEDIHRRGKIPIVVGGTHYYLQTLFNKRVDTKSSERKLTRKQLDILESTDPDVIYNTLVKCDPDIATKYHPNDYRRVQRMLEIYYKTGKKPSETFNEQKITLKFDTLFLWLYSKPEPLFQRLDDRVDDMLERGALQEIKQLYEYYSQNKFTPEQCENGVWQVIGFKEFLPWLTGKTDDNTVKLEDCIERMKTRTRQYAKRQVKWIKKMLIPDIKGDIYLLDATDLSQWDTNASQRAIAISNDFISNRPIKQERAPKALEELLSKGETTMKKLDDWTHYTCNVCRNADGKNVVAIGEKYWKIHLGSRRHKSNLKRNTRQADFEKWKI | soluble |
| MDTPENVLQMLEAHMQSYKGNDPLGEWERYIQWVEENFPENKEYLITLLEHLMKEFLDKKKYHNDPRFISYCLKFAEYNSDLHQFFEFLYNHGIGTLSSPLYIAWAGHLEAQGELQHASAVLQRGIQNQAEPREFLQQQYRLFQTRLTETHLPAQARTSEPLHNVQVLNQMITSKSNPGNNMACISKNQGSELSGVISSACDKESNMERRVITISKSEYSVHSSLASKVDVEQVVMYCKEKLIRGESEFSFEELRAQKYNQRRKHEQWVNEDRHYMKRKEANAFEEQLLKQKMDELHKKLHQVVETSHEDLPASQERSEVNPARMGPSVGSQQELRAPCLPVTYQQTPVNMEKNPREAPPVVPPLANAISAALVSPATSQSIAPPVPLKAQTVTDSMFAVASKDAGCVNKSTHEFKPQSGAEIKEGCETHKVANTSSFHTTPNTSLGMVQATPSKVQPSPTVHTKEALGFIMNMFQAPTLPDISDDKDEWQSLDQNEDAFEAQFQKNVRSSGAWGVNKIISSLSSAFHVFEDGNKENYGLPQPKNKPTGARTFGERSVSRLPSKPKEEVPHAEEFLDDSTVWGIRCNKTLAPSPKSPGDFTSAAQLASTPFHKLPVESVHILEDKENVVAKQCTQATLDSCEENMVVPSRDGKFSPIQEKSPKQALSSHMYSASLLRLSQPAAGGVLTCEAELGVEACRLTDTDAAIAEDPPDAIAGLQAEWMQMSSLGTVDAPNFIVGNPWDDKLIFKLLSGLSKPVSSYPNTFEWQCKLPAIKPKTEFQLGSKLVYVHHLLGEGAFAQVYEATQGDLNDAKNKQKFVLKVQKPANPWEFYIGTQLMERLKPSMQHMFMKFYSAHLFQNGSVLVGELYSYGTLLNAINLYKNTPEKVMPQGLVISFAMRMLYMIEQVHDCEIIHGDIKPDNFILGNGFLEQDDEDDLSAGLALIDLGQSIDMKLFPKGTIFTAKCETSGFQCVEMLSNKPWNYQIDYFGVAATVYCMLFGTYMKVKNEGGECKPEGLFRRLPHLDMWNEFFHVMLNIPDCHHLPSLDLLRQKLKKVFQQHYTNKIRALRNRLIVLLLECKRSRK | soluble |
| RDLKSEVKKRNIQLQFDYPEILSKILLYSNAGLSIKSSIERIVRQYEDEKKKNPKEYHYAYEELKMATVKMKSGVSEINAINQYGERCGLHNYIKLANIIEQNIRRGTGELSFALENELNRALVERKNTALKRGSEISTK | not soluble |
| MALDRLREALGEALFGQEEVIEALLAVLLARGHALLEGMPGLGKTLLAESLARASGLAYKRIQFTPDLLPQDLTGSEVYREGRFVFVPGPIFAQVVLADEINRAPPKVQSALLEAMQERAVTAGGVRHPLPEPFFVIATQNPLELEGTYPLPEAQLDRFTAKIPFRPPRREVWLRILTEEPKAPEPVEVDLLKAQEEAKEVRVAKEALEAITHVAFLTQEDQRLRMGLSPRGAKAWLSLARALAYLRGKPFVDWKELKDAAFLALPHRLFLTEEALYAGESAEGVLKEALRKGGIPLEHHHHHH | soluble |
| MGSDKIHHHHHHMYKEYSPCSVLAPFIYHFWEYKGETRNGLKFNIPPHGRSDFVFIVGNAADCIRNSLIMKPYHSYFFGPMNTFTELVAHTNFIYIIGVRFRPCGLFRFIDIPLNELTNQGIDSHEFPVLFSQSFIYQLCESNQNPIDAIEHELVRQVYKNNTDTEKQISYAVSLISRQKGIVSIKELATEACLGLRQFERKFKFYTGYSPKEYSRIVKFWNAIHLLKSNTSFDNFLSVAIQAGYYDTPHLYREVKRLSGNTPNAFLSLSTNEKVEVLHIEL | not soluble |
| MVEADHPGKLFIGGLNRETNEKMLKAVFGKHGPISEVLLIKDRTSKSRGFAFITFENPADAKNAAKDMNGTSLHGKAIKVEQAKKPSFQSGGRRRPPASSRNRSPSGSLRSARGSSGGTRGWLPSHEGHLDDGGYTPDLKMSYSRGLIPVKRGPSSRSGGPPPKKSAPSAVARSNSWMGSQGPMSQRRENYGVPPRRATISSWRNDRMSTRHDGYATNDGNHPSCQETRDYAPPSRGYAYRDNGHSNRDEHSSRGYRNHRSSRETRDYAPPSRGHAYRDYGHSRRDESYSRGYRNHRSSRETREYAPPSRGHGYRDYGHSRRHESYSRGYRNHPSSRETRDYAPPHRDYAYRDYGHSSWDEHSSRGYSYHDGYGEALGRDHSEHLSGSSYRDALQRYGTSHGAPPARGPRMSYGGSTCHAYSNTRDRYGRSWESYSSCGDFHYCDREHVCRKDQRNPPSLGRVLPDPREAYGSSSYVASIVDGGESRSEKGDSSRY | soluble |
| SLTRPNTDYSCGGFLSQPSGDFSSPFYPGNYPNNAKCVWDIEVQNNYRVTVIFRDVQMEGGCNYDYIEVFDGPYRSSPLIARVCDGARGSFTSSSNFMSIRFISDHSITRRGFRAEYYSSPSN | soluble |
| PSIKSAIQGKPVNPLNVSPTRLPILTADEKEFDVKIIVTGDRNQLADLEYVDEDFSTGLTMYTEVEEDIHLSASNLELYVGLVNWICSEYGFPSLDDGAFQRLLLAGMRLTEDQH | not soluble |
| SLERLIRGMQYHYQWLTPFDAKRTTVVCLHGFTGTLATFAAVFPSQTPYNVLGIDLPGHGATASLVAPERYTMKQVCHDIAELTESLNLPCFCLLGYSMGARTALGFALHYPQKVQHLLLESGSPGLATAAERQARICQDHRLAERLLEEPLVDFIDFWQELPLFQTQKALSVAQQMAIRQERLSQSAFGLVSSLWYMGTGAQESYWERLAELQPIPTDLLVGGEDQKFIGIAKKMQARQPLLRLTIFPEAGHCIHLEQPTIFYEKVTALLEGAI | soluble |
| MSLRVQLILHLEIPKEVCRSLEVDNYINNSIEINLKCEKKPTLYIKTHSIGSLKSILDDFFRCQNAAMEVYNLIKTYTIRNVTKDDLDDFLELYFKAYRGFDKYYYKKKKWARWYFKWLMKRDEDGFFVCEVNGKPVGFVACDCNWISNIEKREVAEIHEIFVDPDFRGRGIGTALINKAIEYAKKRGRRIVELWVGVENKGAIEFYKRLGFEEKEVVKGWLRMVKRIEGHHHHHH | not soluble |
